These results are taken from article PMC101403.

Assay in all cases: purified protein
Common to all, as to details: Mg2+ ([…] MgCl2)

Substrate in data set [1]: CC(=O)SCCNC(=O)CCNC(=O)[C@H](O)C(C)(C)COP(=O)(O)OP(=O)(O)OC[C@H]1O[C@@H](n2cnc3c(N)ncnc32)[C@H](O)[C@@H]1OP(=O)(O)O
Substrate in data set [2]: CC(C)(COP(=O)(O)OP(=O)(O)OC[C@H]1O[C@@H](n2cnc3c(N)ncnc32)[C@H](O)[C@@H]1OP(=O)(O)O)[C@@H](O)C(=O)NCCC(=O)NCCS
Substrate in data set [3]: CC(C)(COP(=O)(O)OP(=O)(O)OC[C@H]1O[C@@H](n2cnc3c(N)ncnc32)[C@H](O)[C@@H]1OP(=O)(O)O)[C@@H](O)C(=O)NCCC(=O)NCCSC(=O)CCC(=O)O
Substrate in data set [4]: CC(O)(CC(=O)O)CC(=O)SCCNC(=O)CCNC(=O)[C@H](O)C(C)(C)COP(=O)(O)OP(=O)(O)OC[C@H]1O[C@@H](n2cnc3c(N)ncnc32)[C@H](O)[C@@H]1OP(=O)(O)O

B1: Y87G2A.14 Nudix hydrolase (coenzyme A diphosphatase) (Caenorhabditis elegans) (protein)
chain: MKCVVSRADDLKRMLDLSDVPTKSQGEQDAGVLILLHDDGSEKLKVLLCVRSRQLRRHPGEVCFPGGMMDDEDGQNVRRTAIREAYEEVGVNENDDYLVLGNLPAFRARFGVLIHPTVALLRRPPTFVLSIGEVESIFWIPLSQFLEDTHHSTFLIDEFYMVHVFQFDEYPTTYGVTALMCIVVAIGLLGKLPNFNLMGNLTISDMLDKHLDSIEIIRHVYEFASRKFEPKSKI
Usually Km stands for the concentration of substrate that gives half-maximal velocity. As a reminder, the kcat is the maximal rate divided by the concentration of active sites. For orientation: kcat/Km means the turnover number divided by the Michaelis constant. In the case of B1, the Km in “purified protein [1]” is 230 µM; in the data set “purified protein [2]”, 220 µM; in “purified protein [3]” it was 240 µM; in “purified protein [4]”, 200 µM. The turnover number (kcat) was determined as 11.8 s⁻¹ in “purified protein [1]”, 13.8 s⁻¹ in the data set “purified protein [2]”, 12.7 s⁻¹ in the data set “purified protein [3]” and 10.5 s⁻¹ in the data set “purified protein [4]”. Besides, the kcat/Km in “purified protein [1]” came out at 51000 M⁻¹ s⁻¹; in the data set “purified protein [2]” it was 64000 M⁻¹ s⁻¹; in the data set “purified protein [3]”, 53000 M⁻¹ s⁻¹; in “purified protein [4]”, 54000 M⁻¹ s⁻¹.
